In article PMC11904497:

Tests used:
[1] = target: Y34F S2SbHbN (Shewanella benthica strain KT99); assay: HP-SAXS (batch SAXS in the high-pressure cell); undiluted sample 10 mg/ml in the high-pressure cell, ambient pressure (0.101 MPa) point of the pressure series; volume-fraction analysis, radius of gyration and molecular mass
[2] = target: S2SbHbN, Shewanella benthica strain KT99 TrHbN-2 (UniProt ID: A9DF82) with Cys51Ser and Cys71Ser replacements (Shewanella benthica strain KT99); assay: as above

stoichiometry N [1]	stoichiometry N [2]	Substance
4	–	Y34F S2SbHbN (natural protein)
–	4	S2SbHbN, Shewanella benthica strain KT99 TrHbN-2 (UniProt ID: A9DF82) with Cys51Ser and Cys71Ser replacements (natural protein)
